Where “and” joins values, the source holds several entries; their conditions need not be identical. Equal entries are not always repeated.
How the values were obtained:
SIH-11 = assay: AUC
[1] = biological target: mammalian expressed RBD (mRBD) of SARS-CoV-2 spike (SARS-CoV-2), P0DTC2; assay: SPR
SIH-13 = assay: AUC
SIH-7 = assay: AUC

DKEWILQKIYEIMRLLDELADAEASMRVSDLIYEFMKK (designed binder, modifications not checked) [SIH-11]
stoichiometry N (SIH-11): 3.2 | Kd [1]: 1.3 nM

DKEWILQKIFEIMRLLDELADAEASMRVSDLIYEFMKK (designed binder, modifications not checked) [SIH-13]
stoichiometry N (SIH-13): 9.5 and 17.7 | Kd [1]: 1.6 nM

DKEWILQKIFEIMRLLDELADAEASMRVSDLIYEFMKK (designed binder, modifications not checked) [SIH-7]
stoichiometry N (SIH-7): 4.1 and 7.9 | Kd [1]: 2.9 nM
